According to paper doi:10.1101/786475 (bioRxiv, 2019):

Experiments:
Experiment in all cases: peptide or protein array
[1] = target: T1, Eno2p (spotted on the yeast ProtoArray) (S. cerevisiae, UniProt P00925 1-437)
T1 sequence (looked up): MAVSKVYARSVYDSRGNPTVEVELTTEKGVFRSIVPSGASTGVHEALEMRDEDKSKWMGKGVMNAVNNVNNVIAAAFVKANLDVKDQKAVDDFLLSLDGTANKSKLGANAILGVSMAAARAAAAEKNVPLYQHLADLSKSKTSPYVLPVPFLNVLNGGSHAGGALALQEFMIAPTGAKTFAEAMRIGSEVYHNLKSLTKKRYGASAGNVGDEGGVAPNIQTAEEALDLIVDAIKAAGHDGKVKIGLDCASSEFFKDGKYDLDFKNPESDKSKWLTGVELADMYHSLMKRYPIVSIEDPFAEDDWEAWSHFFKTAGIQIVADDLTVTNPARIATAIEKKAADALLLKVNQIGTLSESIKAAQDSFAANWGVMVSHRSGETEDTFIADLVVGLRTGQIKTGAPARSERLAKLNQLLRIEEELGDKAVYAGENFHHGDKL

[2] = target: T2, Aip1p (spotted on the yeast ProtoArray) (S. cerevisiae, UniProt P46680 1-615)
T2 sequence (looked up): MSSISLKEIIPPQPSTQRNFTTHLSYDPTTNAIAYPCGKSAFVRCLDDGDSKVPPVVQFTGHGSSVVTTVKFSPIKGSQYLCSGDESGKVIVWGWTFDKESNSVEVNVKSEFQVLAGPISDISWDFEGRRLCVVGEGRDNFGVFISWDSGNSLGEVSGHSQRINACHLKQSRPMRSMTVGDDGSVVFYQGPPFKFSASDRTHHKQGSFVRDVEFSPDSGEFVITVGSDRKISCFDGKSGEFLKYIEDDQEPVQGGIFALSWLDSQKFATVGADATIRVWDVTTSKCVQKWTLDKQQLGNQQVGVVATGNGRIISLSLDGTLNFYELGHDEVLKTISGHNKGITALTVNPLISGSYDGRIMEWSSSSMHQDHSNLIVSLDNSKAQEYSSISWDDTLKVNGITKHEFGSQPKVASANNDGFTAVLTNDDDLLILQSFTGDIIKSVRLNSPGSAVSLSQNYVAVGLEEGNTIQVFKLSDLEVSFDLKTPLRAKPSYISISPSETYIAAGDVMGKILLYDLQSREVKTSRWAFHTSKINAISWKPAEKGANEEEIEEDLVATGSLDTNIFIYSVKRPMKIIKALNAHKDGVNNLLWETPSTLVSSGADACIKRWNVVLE

[3] = target: T3, Qcr6p (spotted on the yeast ProtoArray) (S. cerevisiae, UniProt P00127 1-147)
T3 sequence (looked up): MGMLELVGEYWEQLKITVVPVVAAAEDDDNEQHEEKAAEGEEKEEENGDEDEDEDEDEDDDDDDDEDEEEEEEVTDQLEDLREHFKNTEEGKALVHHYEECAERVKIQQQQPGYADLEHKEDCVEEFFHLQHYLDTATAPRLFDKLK

[4] = target: T4, Gln1p (spotted on the yeast ProtoArray) (S. cerevisiae, UniProt P32288 1-370)
T4 sequence (looked up): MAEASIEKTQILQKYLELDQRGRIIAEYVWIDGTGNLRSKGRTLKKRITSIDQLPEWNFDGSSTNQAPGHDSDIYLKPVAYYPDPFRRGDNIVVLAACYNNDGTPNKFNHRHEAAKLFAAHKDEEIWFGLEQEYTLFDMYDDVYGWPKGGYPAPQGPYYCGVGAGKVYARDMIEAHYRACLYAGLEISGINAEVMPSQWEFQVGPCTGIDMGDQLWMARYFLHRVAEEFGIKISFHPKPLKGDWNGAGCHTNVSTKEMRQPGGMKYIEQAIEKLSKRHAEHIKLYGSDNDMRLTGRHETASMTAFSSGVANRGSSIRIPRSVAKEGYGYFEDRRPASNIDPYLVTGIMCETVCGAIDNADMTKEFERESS

[5] = target: T5, Erg20p (spotted on the yeast ProtoArray) (S. cerevisiae, UniProt P08524 1-352)
T5 sequence (looked up): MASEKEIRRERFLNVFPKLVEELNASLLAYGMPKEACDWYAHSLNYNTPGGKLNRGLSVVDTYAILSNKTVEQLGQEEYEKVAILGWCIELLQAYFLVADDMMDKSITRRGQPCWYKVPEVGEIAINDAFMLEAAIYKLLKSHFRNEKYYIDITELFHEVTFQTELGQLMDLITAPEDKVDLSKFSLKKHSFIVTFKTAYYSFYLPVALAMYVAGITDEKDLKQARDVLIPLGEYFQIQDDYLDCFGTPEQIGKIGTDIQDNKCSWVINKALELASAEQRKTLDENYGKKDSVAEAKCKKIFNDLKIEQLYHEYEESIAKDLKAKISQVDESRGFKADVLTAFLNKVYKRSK

binding result [1]: binds
binding result [2]: binds
binding result [3]: binds
binding result [4]: binds
binding result [5]: binds
B1: purified and biotinylated cytoplasmic domain of the Msb2p protein (HIS-Msb2p^CYT) (domain or fragment, S. cerevisiae, UniProt P32334 1207-1306, looked up)
chain: AFKYIIRRRIQSQEIIKNPEISSISSSEFGGEKNYNNEKRMSVQESITQSMRIQNWMDDSYYGHGLTNNDSTPTRHNTSSSIPKISRPIASQNSLGWNEV
modifications: biotinylated in vitro (sites not given)
